From IntAct's records for PubMed 17485491

B1: Serine/threonine-protein kinase D1 (Mus musculus), Q62101 (parent)
chain: MSVPPLLRPPSPLLPAAAAVAAAAAALVPGSGPAPFPAPGAAPAGGISFHLQIGLSREPVLLLQDSSGDYSLAHVREMACSIVDQKFPECGFYGLYDKILLFRHDPASDNILQLVKIASDIQEGDLIEVVLSASATFEDFQIRPHALFVHSYRAPAFCDHCGEMLWGLVRQGLKCEGCGLNYHKRCAFKIPNNCSGVRRRRLSNVSLTGLGTVRTASAEFSTSVPDEPLLSPVSPGFEQKSPSESFIGREKRSNSQSYIGRPIQLDKLLMSKVKVPHTFVIHSYTRPTVCQFCKKLLKGLFRQGLQCKDCRFNCHKRCAPKVPNNCLGEVTINGELLSPGAESDVVMEEGSDDNDSERNSGLMDDMDEAMVQDTEMALAEGQSGGAEMQDPDADQEDSNRTISPSTSNNIPLMRVVQSVKHTKRRSSTVMKEGWMVHYTSKDTLRKRHYWRLDSKCITLFQNDTGSRYYKEIPLSEILCLEPAKPSALTPVGATPHCFEITTANVVYYVGENVVNPSSSPPNNSVLPSGIGPDVARMWEVAIQHALMPVIPKGSSVGSGSNSHKDISVSISVSNCQIQENVDISTVYQIFPDEVLGSGQFGIVYGGKHRKTGRDVAIKIIDKLRFPTKQESQLRNEVAILQNLHHPGVVNLECMFETPERVFVVMEKLHGDMLEMILSSEKGRLPEHITKFLITQILVALRHLHFKNIVHCDLKPENVLLASADPFPQVKLCDFGFARIIGEKSFRRSVVGTPAYLAPEVLRNKGYNRSLDMWSVGVIIYVSLSGTFPFNEDEDIHDQIQNAAFMYPPNPWKEISHEAIDLINNLLQVKMRKRYSVDKTLSHPWLQDYQTWLDLRELECRIGERYITHESDDSRWEQYAGEQGLQYPAHLISLSASHSDSPEAEEREMKALSERVSIL

Variants of: B1
Details: with itb3_human ITGB3, P05106
itb3_human ITGB3, P05106, sequence (P05106 whole entry): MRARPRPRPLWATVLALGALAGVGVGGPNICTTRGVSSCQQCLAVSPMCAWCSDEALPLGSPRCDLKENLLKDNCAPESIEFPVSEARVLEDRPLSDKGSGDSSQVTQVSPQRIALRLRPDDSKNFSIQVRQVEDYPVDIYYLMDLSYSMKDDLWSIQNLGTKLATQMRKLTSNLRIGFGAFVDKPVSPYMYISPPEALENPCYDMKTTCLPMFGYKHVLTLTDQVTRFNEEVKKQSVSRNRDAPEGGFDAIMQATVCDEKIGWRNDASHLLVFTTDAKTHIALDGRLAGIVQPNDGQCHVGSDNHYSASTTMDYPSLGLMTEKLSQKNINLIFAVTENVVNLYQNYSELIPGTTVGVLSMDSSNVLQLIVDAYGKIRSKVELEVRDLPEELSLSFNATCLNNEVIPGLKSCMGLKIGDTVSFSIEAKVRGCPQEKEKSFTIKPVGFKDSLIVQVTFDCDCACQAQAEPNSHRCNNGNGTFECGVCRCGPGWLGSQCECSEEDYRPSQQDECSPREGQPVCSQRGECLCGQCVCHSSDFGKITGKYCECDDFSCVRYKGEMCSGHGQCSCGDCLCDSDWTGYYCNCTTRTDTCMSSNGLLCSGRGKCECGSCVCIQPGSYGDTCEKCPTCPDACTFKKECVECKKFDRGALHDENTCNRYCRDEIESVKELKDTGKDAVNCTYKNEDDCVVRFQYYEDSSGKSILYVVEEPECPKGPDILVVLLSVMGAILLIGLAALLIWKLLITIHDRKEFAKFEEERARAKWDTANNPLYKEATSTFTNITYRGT

Row | Variant | effect of a mutation on the interaction
1 | S916A | decreasing interaction

Variants of: B1
Details: with itb3_human ITGB3, P05106
Remark: another data set of the same source

Row | Variant | effect of a mutation on the interaction
2 | S916A | disrupting interaction
